{"source": "IntAct's records for PubMed 22745600", "key": {"pbx1_mouse Pbx1": {"target": "pbx1_mouse Pbx1 (UniProt P41778)", "sequence (P41778 whole entry)": "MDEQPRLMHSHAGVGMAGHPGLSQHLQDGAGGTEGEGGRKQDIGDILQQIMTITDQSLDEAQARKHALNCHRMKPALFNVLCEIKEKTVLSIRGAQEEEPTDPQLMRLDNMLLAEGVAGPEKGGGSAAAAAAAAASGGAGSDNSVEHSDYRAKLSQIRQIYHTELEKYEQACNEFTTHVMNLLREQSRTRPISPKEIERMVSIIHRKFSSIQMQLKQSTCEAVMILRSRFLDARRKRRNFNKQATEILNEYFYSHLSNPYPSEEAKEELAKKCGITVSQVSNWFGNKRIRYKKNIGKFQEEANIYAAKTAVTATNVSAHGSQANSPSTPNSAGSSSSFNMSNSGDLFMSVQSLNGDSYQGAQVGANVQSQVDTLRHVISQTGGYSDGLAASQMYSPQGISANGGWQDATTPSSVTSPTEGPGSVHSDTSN"}, "exd_drome exd [1]": {"target": "exd_drome exd (UniProt P40427)", "sequence (P40427 whole entry)": "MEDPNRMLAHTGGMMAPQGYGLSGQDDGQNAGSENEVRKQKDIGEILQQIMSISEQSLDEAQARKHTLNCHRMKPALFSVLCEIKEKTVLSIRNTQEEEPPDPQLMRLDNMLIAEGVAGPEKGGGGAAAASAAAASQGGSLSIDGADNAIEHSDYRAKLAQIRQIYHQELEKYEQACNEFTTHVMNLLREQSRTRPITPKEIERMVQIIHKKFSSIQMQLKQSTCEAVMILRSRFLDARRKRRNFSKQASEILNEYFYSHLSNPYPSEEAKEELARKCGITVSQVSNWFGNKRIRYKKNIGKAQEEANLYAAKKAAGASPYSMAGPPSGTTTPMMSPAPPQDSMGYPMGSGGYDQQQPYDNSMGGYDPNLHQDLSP"}, "exd_drome exd [2]": {"target": "exd_drome exd (UniProt P40427)", "remark": "listed apart in the source"}, "exd_drome exd [3]": {"target": "exd_drome exd (UniProt P40427)", "remark": "listed apart in the source"}}}
{"substance": "Homeobox protein Hox-B8 (Mus musculus), P09632 W137A;M138A", "values": [{"measurement": "effect of a mutation on the interaction", "setting": "pbx1_mouse Pbx1", "value": "decreasing interaction strength"}]}
{"substance": "Homeotic protein ultrabithorax (Drosophila melanogaster (Fruit fly)), P83949 K358A;E359A;N361A;E362A;Q363A", "values": [{"measurement": "effect of a mutation on the interaction", "setting": "exd_drome exd [1]", "value": "decreasing interaction strength"}]}
{"substance": "Homeobox protein abdominal-A (Drosophila melanogaster (Fruit fly)), P29555 E462A;I463A;N464A;E465A", "values": [{"measurement": "effect of a mutation on the interaction", "setting": "exd_drome exd [2]", "value": "decreasing interaction strength"}]}
{"substance": "Homeobox protein abdominal-A (Drosophila melanogaster (Fruit fly)), P29555 T375A;D376A;W377A", "values": [{"measurement": "effect of a mutation on the interaction", "setting": "exd_drome exd [2]", "value": "decreasing interaction strength"}]}
{"substance": "Homeotic protein labial (Drosophila melanogaster (Fruit fly)), P10105 K393A;W394A;M395A", "values": [{"measurement": "effect of a mutation on the interaction", "setting": "exd_drome exd [3]", "value": "decreasing interaction strength"}]}
